From IntAct's records for PubMed 26853155 come the findings set out here.

B1: Syncytin-2 (Homo sapiens), P60508 (parent)
chain: MGLLLLVLILTPSLAAYRHPDFPLLEKAQQLLQSTGSPYSTNCWLCTSSSTETPGTAYPASPREWTSIEAELHISYRWDPNLKGLMRPANSLLSTVKQDFPDIRQKPPIFGPIFTNINLMGIAPICVMAKRKNGTNVGTLPSTVCNVTFTVDSNQQTYQTYTHNQFRHQPRFPKPPNITFPQGTLLDKSSRFCQGRPSSCSTRNFWFRPADYNQCLQISNLSSTAEWVLLDQTRNSLFWENKTKGANQSQTPCVQVLAGMTIATSYLGISAVSEFFGTSLTPLFHFHISTCLKTQGAFYICGQSIHQCLPSNWTGTCTIGYVTPDIFIAPGNLSLPIPIYGNSPLPRVRRAIHFIPLLAGLGILAGTGTGIAGITKASLTYSQLSKEIANNIDTMAKALTTMQEQIDSLAAVVLQNRRGLDMLTAAQGGICLALDEKCCFWVNQSGKVQDNIRQLLNQASSLRERATQGWLNWEGTWKWFSWVLPLTGPLVSLLLLLLFGPCLLNLITQFVSSRLQAIKLQTNLSAGRHPRNIQESPF
partner: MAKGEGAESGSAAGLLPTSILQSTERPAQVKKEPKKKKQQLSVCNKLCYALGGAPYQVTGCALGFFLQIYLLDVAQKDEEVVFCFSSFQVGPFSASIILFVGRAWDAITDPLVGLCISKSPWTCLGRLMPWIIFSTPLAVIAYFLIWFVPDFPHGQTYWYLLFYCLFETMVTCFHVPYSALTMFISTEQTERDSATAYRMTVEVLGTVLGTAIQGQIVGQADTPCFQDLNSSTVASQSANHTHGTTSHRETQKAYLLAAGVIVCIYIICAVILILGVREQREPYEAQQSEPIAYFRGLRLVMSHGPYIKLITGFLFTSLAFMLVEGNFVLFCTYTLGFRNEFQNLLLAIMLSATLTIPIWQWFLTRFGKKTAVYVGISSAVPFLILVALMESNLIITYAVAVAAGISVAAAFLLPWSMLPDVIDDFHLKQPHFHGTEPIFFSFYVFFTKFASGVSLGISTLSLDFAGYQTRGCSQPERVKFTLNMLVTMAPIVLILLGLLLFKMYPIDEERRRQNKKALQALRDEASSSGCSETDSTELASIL

The variants in the assay derive from B1. To be noted: with nls1_human MFSD2A.
For the variant MGLLLLVLILTPSLAAYRHPDFPLLEKAQQLLQSTGSPYSTNCWLCTSSSTETPGTAYPASPREWTSIEAELHISYRWDPNLKGLMRPANSLLSTVKQDFPDIRQKPPIFGPIFTNINLMGIAPICVMAKRKNGTNVGTLPSTVCNVTFTVDSNQQTYQTYTHNQFRHQPRFPKPPNITFPQGTLLDKSSRFCQGRPSSCSTRNFWFRPADYNQCLQISNLSSTAEWVLLDQTRNSLFWENKTKGANQSQTPCVQVLAGMTIATSYLGISAVSEFFGTSLTPLFHFHISTCLKTQGAFYICGQSIHQCLPSNWTGTCTIGYVTPDIFIAPGNLSLPIPIYGNSPLPRVRRAIHFIPLLAGLGILAGTGTGIAGITKASLTYSQLSKEIANNIDTMAKALTTMQEQIDSLAAVVLQNRRGLDMLTAAQGGICLALDEKCCFWVQQSGKVQDNIRQLLNQASSLRERATQGWLNWEGTWKWFSWVLPLTGPLVSLLLLLLFGPCLLNLITQFVSSRLQAIKLQTNLSAGRHPRNIQESPF [N443Q], the “effect of a mutation on the interaction” value is given as “disrupting interaction strength”.
Under MGLLLLVLILTPSLAAYRHPDFPLLEKAQQLLQSTGSPYSTNCWLCTSSSTETPGTAYPASPREWTSIEAELHISYRWDPNLKGLMRPANSLLSTVKQDFPDIRQKPPIFGPIFTNINLMGIAPICVMAKRKNGTNVGTLPSTVCNVTFTVDSNQQTYQTYTHNQFRHQPRFPKPPNITFPQGTLLDKSSRFCQGRPSSCSTRNFWFRPADYNQCLQISNLSSTAEWVLLDQTRNSLFWENKTKGANQSQTPCVQVLAGMTIATSYLGISAVSEFFGTSLTPLFHFHISTCLKTQGAFYICGQSIHQCLPSNWTGTCTIGYVTPDIFIAPGNLSLPIPIYGNSPLPRVRRAIHFIPLLAGLGILAGTGTGIAGITKASLTYSQLSKEIANNIDTMAKALTTMQEQIDSLAAVVLQNRRGLDMLTAAQGGICLALDEKCCFWVNQSGKVQDNIRQLLNQASSLRERATQGWLNWEGTWKWFSWILPLTGPLVSLLLLLLFGPCLLNLITQFVSSRLQAIKLQTNLSAGRHPRNIQESPF [V483I] stands “decreasing interaction strength”; under MGLLLLVLILTPSLAAYRHPDFPLLEKAQQLLQSTGSPYSTNCWLCTSSSTETPGTAYPASPREWTSIEAELHISYRWDPNLKGLMRPANSLLSTVKQDFPDIRQKPPIFGPIFTNINLMGIAPICVMAKRKNGTNVGTLPSTVCNVTFTVDSNQQTYQTYTHNQFRHQPRFPKPPNITFPQGTLLDKSSRFCQGRPSSCSTRNFWFRPADYNQCLQISNLSSTAEWVLLDQTRNSLFWENKTKGANQSQTPCVQVLAGMTIATSYLGISAVSEFFGTSLTPLFHFHISTCLKTQGAFYICGQSIHQCLPSNWTGTCTIGYVTPDIFIAPGNLSLPIPIYGNSPLPRVRRAIHFIPLLAGLGILAGTGTGIAGITKASLTYSQLSKEIANNIDTMAKALTTMQEQIDSLAAVVLQNHRGLDMLTAAQGGICLALDEKCCFWVNQSGKVQDNIRQLLNQASSLRERATQGWLNWEGTWKWFSWVLPLTGPLVSLLLLLLFGPCLLNLITQFVSSRLQAIKLQTNLSAGRHPRNIQESPF [R417H], “decreasing interaction strength”; under MGLLLLVLILTPSLAAYRHPDFPLLEKAQQLLQSTGSPYSTNCWLCTSSSTETPGTAYPASPREWTSIEAELHISYRWDPNLKGLMRPANSLLSTVKQDFPDIRQKPPIFGPIFTNINLMGIAPICVMAKRKNGTNVGTLPSTVCNVTFTVDSNQQTYQTYTHNQFRHQPRFPKPPNITFPQGTLLDKSSRFCQGRPSSCSTRNFWFRPADYNQCLQISNLSSTAEWVLLDQTRNSLFWENKTKGANQSQTPCVQVLAGMTIATSYLGISAVSEFFGTSLTPLFHFHISTCLKTQGAFYICGQSIHQCLPSNWTGTCTIGYVTPDIFIAPGNLSLPIPIYGNSPLPRVRRAIHFIPLLAGLGILAGTGTGIAGITKASLTYSQLSKEIANNIDTMAKALTTMQEQIDSLAAVVLQNRRGLDMLTAAQGGICLALDEKCCFWVNQSGKVQDNIRQLLNQASSLRERATQGWLNWEGTWKWFSWVLPLTGPLVSLLLLLLFGPCLLNLITQFVSSRLQAIKLQMNLSAGRHPRNIQESPF [T522M], “decreasing interaction strength”.
